Source: patent publication US11680267B2, “Co-regulatory sequences based on tetracycline and Cumate” (Shenzhen Eureka Biotechnology Co., Ltd., priority 2020, dated 2023)

Key:
Type in all cases: cell-based
293T-rtTA3G-CymR cells [1] = experiment: Luciferase fluorescence intensity assay, transient transfection, both DOX and Cumate vs DOX alone (Example 2); details: for induced expression level: transient transfection, 24 hours after transfection
Text: The experiment described in the present Example is to study and verify the effect of the position and copy number of the CuO operator in the Tet-On and Cumate complex response element on the induced expression level and non-induced leaky expression level of the complex response element, and to optimize and confirm the optimal position and copy number of the CuO operator. In the present Example, based on the 7×TetO sequence in the TRE3G response element and the minimal promoter sequence #1 (SEQ ID NO: 25), the response elements TRE3GCuO14 (10-317 bp in SEQ ID NO: 8), TRE3GCuO30 (SEQ ID NO: 28), TRE3GCuO50 (SEQ ID NO: 23) and TRE3GCuO100 (10-403 bp in SEQ ID NO: 10) were designed by linking a CuO operator sequence at 10 bp to 100 bp downstream of the TATA box (at 14 bp, 30 bp, 50 bp and 100 bp downstream of the TATA box, respectively), and a Luciferase reporter gene sequence was linked downstream of the 3′ end of the above response elements, to construct plasmids 18BF251, 18BF252, 18BF235 and 18BF253. Further, in order to study the effect of multiple copies of CuO operators, 2, 4 and 6 copies of CuO operator sequences were respectively inserted at 50 bp downstream of the TATA box, to design the response elements TRE3GCuO2x (10-411 bp in SEQ ID NO: 11), TRE3GCuO4x (10-527 bp in SEQ ID NO: 12) and TRE3GCuO6x (10-643 bp in SEQ ID NO: 13), and then a Luciferase reporter gene sequence was linked downstream of 3′ end of the above response elements to construct plasmids 18BF254, 18BF255 and 18BF256. In 293T-rtTA3G-CymR cells stably expressing rtTA3G and CymR genes, the above plasmids were transiently transfected, and the optimal position and number of CuO operator were validated by measuring the luciferase […] value of samples added with both DOX and Cumate inducers and that of the control added with the DOX inducer only. The specific experimental methods were as follows:
(§1) 293T cells were seeded at 1.5E+06 cells per 60 mm culture dish, and cultured in DMEM (Sigam, D6429) complete medium supplemented with 10% FBS (ExCell, 11H116) at 37° C. and 5% CO 2. After 24 hours of culture, transfection was carried out according to the PEI method. During transfection, 500 μL of transfection reagent which contained 5.5 ug of total plasmid was added to each 60 mm culture dish, and the mass ratio of total plasmid to PEI MAX (Polysciences, 24765-1) was 1:4. The transfection was carried out according to the PEI method, wherein the amount of total plasmid was 5.5 μg. The transfection was performed with plasmids 19BF074:18BF019 at a molar ratio of 10:1 to obtain 293T-rtTAadv-CymR cells; and the transfection was performed with plasmids 19BF075:18BF019 at a molar ratio of 10:1 to obtain 293T-rtTA3G-CymR cells. The plasmid and PEI MAX were mixed uniformly, and then put into a culture dish after standing for 15 minutes. 3 hours after transfection, the medium was changed to a complete DMEM medium, and the transfection operation was completed. After 24 hours of transfection, the cells were digested with trypsin and all seeded in a 100 mm culture dish (Corning, 430167), and 200 μg/ml of hygromycin (Sangon Biotech A600230-0001) drug screening was performed for at least three passages. After the growth of cells under the pressure of drug screening was consistent with that of the original 293T cells, the following experiments were performed.
The 293T-rtTA3G-CymR cells were seeded in a 96-well plate (Corning 3916) at 2.5E+04 cells per well, and the medium was 100 microliters of DMEM complete medium. […]

293T-rtTAadv-CymR cells = experiment: Luciferase assay, transient transfection, DOX and Cumate vs no inducer (Example 3), rtTAadv cells
Procedure: as §1
(§2) In Tet-On inducible expression system, the induced transcription activity and the leaky transcription activity were comprehensively affected by the TetO operator linking sequence of the TRE response element and the minimal promoter sequence, as well as different mutants of the transactivator rtTA. In addition, the transport and stability of messenger ribonucleic acid may be enhanced by linking a spliceable intron sequence downstream of the 3′ end of the response element and upstream of the 5′ end of the regulated nucleic acid fragment of interest, but the induced transcription activity and leaky transcription activity of response element of the inducible expression system may also be affected. Based on this, the optimal design scheme of complex response element was determined in this Example based on the induced expression level and the ratio of induced/leaky expression level of Luciferase gene under the combination of the following conditions: (1) Tet-On and Cumate complex response elements TREadvCuO and TRE3GCuO designed based on the TREadv and TRE3G response element sequences; (2) whether an intron was linked; (3) being regulated by the transactivator rtTAadv or rtTA3G. A total of 8 design schemes were compared in this Example: TREadv (18BF232), TREadvCuO (18BF233), TRE3G (18BF234), TRE3GCuO (18BF235), TREadv-BGI (18BF240, wherein the response element was TREadv, and a human β-globulin intron was linked between the 3′ end of the response element and the 5′ end of the Luciferase gene), TREadvCuO-BGI (18BF241, wherein the response element was TREadvCuO, and a human β-globulin intron was linked between the 3′ end of the response element and the 5′ end of the Luciferase gene), TRE3G-BGI (18BF236, wherein the response element was TRE3G, and a human β-globulin intron was linked between the 3′ end of the response element and the 5′ end of the Luciferase gene) and TRE3GCuO-BGI (18BF237, wherein the response element was TRE3GCuO, and a human β-globulin intron was linked between the 3′ end of the response element and the 5′ end of the Luciferase gene). The promoter CMV-BGI (18BF229, wherein the promoter was CMV, and a human β-globulin intron was linked between the 3′ end of the CMV promoter and the 5′ end of the Luciferase gene) was used as a positive control. […]

293T-rtTA3G-CymR cells [2] = experiment: Luciferase assay, transient transfection, DOX and Cumate vs no inducer (Example 3), rtTA3G cells; details: 293T-rtTA3G-CymR cells
Procedure: as §1, §2

293T-rtTA3G-CymR cells [3] = experiment: Luciferase fluorescence intensity assay, transient transfection, both DOX and Cumate vs DOX alone (Example 2); details: for induced expression level as % of the induced expression level for TREadv response element: 1 ug/ml DOX and 200 ug/ml Cumate; for ratio of induced/leaky expression level based on Cumate inducible expression system, relative to that for the TREadv response element: DOX and Cumate vs DOX only
[4] = 1 ug/ml DOX and 200 ug/ml Cumate

| Molecule | induced expression level as % of the induced expression level of TRE3G response element (293T-rtTA3G-CymR cells [1]; [4]) | ratio of induced/leaky expression level based on Cumate inducible expression system, relative to that of TRE3G response element (293T-rtTA3G-CymR cells [1]; DOX and Cumate vs DOX only) | induced expression level (293T-rtTA3G-CymR cells [1]; [4]) | induced expression level as % of that of the corresponding TRE3G or TREadv single regulatory response element (293T-rtTAadv-CymR cells; DOX and Cumate) | induced/leaky expression ratio (293T-rtTAadv-CymR cells; DOX and Cumate vs no inducer) | induced expression level as % of that of the single regulatory response element (293T-rtTA3G-CymR cells [2]; DOX and Cumate) | induced/leaky expression ratio (293T-rtTA3G-CymR cells [2]; DOX and Cumate vs no inducer) | induced expression level as % of the induced expression level for TREadv response element (293T-rtTA3G-CymR cells [3]) | ratio of induced/leaky expression level based on Cumate inducible expression system, relative to that for the TREadv response element (293T-rtTA3G-CymR cells [3]) |
| --- | --- | --- | --- | --- | --- | --- | --- | --- | --- |
| TRE3GCuO30: Tet-On (TRE3G) and Cumate complex response element, CuO 30 bp behind the TATA box (SEQ ID NO: 28) (nucleic acid, TRE3GCuO30 response element sequence) DNA: TCCCTATCAGTGATAGAGAACGTATGAAGAGTTTACTCCCTATCAGTGATAGAGAACGTATGCAGACTTTACTCCCTATCAGTGATAGAGAACGTATAAGGAGTTTACTCCCTATCAGTGATAGAGAACGTATGACCAGTTTACTCCCTATCAGTGATAGAGAACGTATCTACAGTTTACTCCCTATCAGTGATAGAGAACGTATATCCAGTTTACTCCCTATCAGTGATAGAGAACGTATTAGGCGTGTACGGTGGGCGCCTATAAAAGCAGAGCTCGTTTAGTGAACCGTCAGATACAAACAGACCAGATTGTCTGTTTGTT | 44.5% | 4.21 times | 3.06E+06 RLU | – | – | – | – | – | – |
| TREadvCuO: Tet-On (7xTetO of TREadv) and Cumate complex response element, CuO 52 bp behind the TATA box (SEQ ID NO: 30) (nucleic acid, TREadvCuO52 response element sequence) DNA: TCCCTATCAGTGATAGAGAACGTATGTCGAGTTTACTCCCTATCAGTGATAGAGAACGATGTCGAGTTTACTCCCTATCAGTGATAGAGAACGTATGTCGAGTTTACTCCCTATCAGTGATAGAGAACGTATGTCGAGTTTACTCCCTATCAGTGATAGAGAACGTATGTCGAGTTTATCCCTATCAGTGATAGAGAACGTATGTCGAGTTTACTCCCTATCAGTGATAGAGAACGTATGTCGAGGTAGGCGTGTACGGTGGGAGGCCTATATAAGCAACCGGTGTTTAGTGAACCGTCAGATCGCCTGGAGACGCCATCATAATACAAACAGACCAGATTGTCTGTTTGTT | – | – | 4.88E+06 RLU | 36.3% | 1345 times | 40.3% | 1915 times | 53.4% | 3.23 times |
| TREadvCuO32: Tet-On (TREadv) and Cumate complex response element, CuO 32 bp behind the TATA box (SEQ ID NO: 29) (nucleic acid, TREadvCuO32 response element sequence) DNA: TCCCTATCAGTGATAGAGAACGTATGTCGAGTTTACTCCCTATCAGTGATAGAGAACGATGTCGAGTTTACTCCCTATCAGTGATAGAGAACGTATGTCGAGTTTACTCCCTATCAGTGATAGAGAACGTATGTCGAGTTTACTCCCTATCAGTGATAGAGAACGTATGTCGAGTTTATCCCTATCAGTGATAGAGAACGTATGTCGAGTTTACTCCCTATCAGTGATAGAGAACGTATGTCGAGGTAGGCGTGTACGGTGGGAGGCCTATATAAGCAACCGGTGTTTAGTGAACCGTCAGATCTACAAACAGACCAGATTGTCTGTTTGTT | – | – | 3.26+06 RLU | – | – | – | – | 37.8% | 4.97 times |
